Laboratory results reported in article PMC7272049 (PLoS ONE, 2020).

B1: mB7-1 mIgG2a (Fc fusion, mouse, UniProt Q00609 38-246, looked up)
chain: VDEQLSKSVKDKVLLPCRYNSPHEDESEDRIYWQKHDKVVLSVIAGKLKVWPEYKNRTLYDNTTYSLIILGLVLSDRGTYSCVVQKKERGTYEVKHLALVKLSIKADFSTPNITESGNPSADTKRITCFASGGFPKPRFSWLENGRELPGINTTISQDPESELYTISSQLDFNTTRNHTIKCLIKYGDAHVSEDFTWEKPPEDPPDSKN
notes: mouse B7-1 (CD80); also called mB7-1 Ig-fusion; B7-1 Fc; source: small-scale purified recombinant protein

Assays:
[1] = molecular target: T1, mPD-L1 Q214A mCherry (mouse, UniProt Q9EP73 19-290, Q214A); assay: flow cytometry on cells; HEK 293 cells expressing PD-L1 mCherry (WT or mutant) queried with protein A microbeads saturated with a 4:1 mixture of PD-1 or B7-1 Fc-fusion and FITC-Fc; no wash; normalised to wild type; settings: one partner purified
T1 construct: mouse PD-L1; source: HEK 293, transfected, on cells; not shown: mCherry, C-terminal, kept

[2] = molecular target: T2, mPD-L1 M188A mCherry (mouse, UniProt Q9EP73 19-290, M188A); assay: as above; settings: one partner purified
T2 construct: mouse PD-L1; source: HEK 293, transfected, on cells; not shown: mCherry, C-terminal, kept

[3] = molecular target: T3, mPD-L1 S142A mCherry (mouse, UniProt Q9EP73 19-290, S142A); assay: as above; settings: one partner purified
T3 construct: mouse PD-L1; source: HEK 293, transfected, on cells; not shown: mCherry, C-terminal, kept

[4] = molecular target: T4, mPD-L1 E163R mCherry (mouse, UniProt Q9EP73 19-290, E163R); assay: as above; settings: one partner purified
T4 construct: mouse PD-L1; source: HEK 293, transfected, on cells; not shown: mCherry, C-terminal, kept

[5] = molecular target: T5, mPD-L1 E163A mCherry (mouse, UniProt Q9EP73 19-290, E163A); assay: as above; settings: one partner purified
T5 construct: mouse PD-L1; source: HEK 293, transfected, on cells; not shown: mCherry, C-terminal, kept

[6] = molecular target: B1; assay: bead-based flow cytometry competition; protein A beads saturated with mB7-1 mIgG2a; 20 nM mPD-L1 hIgG1 or mCD28 hIgG1 with increasing mIgG2a-fused competitor; anti-human Alexa 488; settings: both partners purified

T5 sequence (Q9EP73 19-290 E163A): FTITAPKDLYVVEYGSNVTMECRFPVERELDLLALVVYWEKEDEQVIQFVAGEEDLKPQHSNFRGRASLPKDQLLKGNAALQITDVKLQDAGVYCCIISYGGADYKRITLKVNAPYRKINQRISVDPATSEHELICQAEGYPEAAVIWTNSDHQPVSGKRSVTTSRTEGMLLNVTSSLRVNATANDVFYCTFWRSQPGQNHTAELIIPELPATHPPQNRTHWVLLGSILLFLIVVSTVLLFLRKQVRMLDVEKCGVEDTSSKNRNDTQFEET
T1 sequence (Q9EP73 19-290 Q214A): as the sequence (Q9EP73 19-290 E163A) above, with A145E, Q196A counted along it
T3 sequence (Q9EP73 19-290 S142A): as the sequence (Q9EP73 19-290 E163A) above, with S124A, A145E counted along it
T2 sequence (Q9EP73 19-290 M188A): as the sequence (Q9EP73 19-290 E163A) above, with A145E, M170A counted along it
T4 sequence (Q9EP73 19-290 E163R): as the sequence (Q9EP73 19-290 E163A) above, with A145R counted along it

Row | percent of wild-type binding [1] [%] | percent of wild-type binding [2] [%] | percent of wild-type binding [3] [%] | percent of wild-type binding [4] [%] | percent of wild-type binding [5] [%] | binding result [6] | Binder
1 | ~50 | ~50 | ~50 | ~50 | ~50 | – | B1
2 | – | – | – | – | – | binds | mCD28 hIgG1 (Fc fusion, mouse, UniProt P31041 20-150, looked up, mouse CD28; also called soluble mCD28 hIgG1) NKILVKQSPLLVVDSNEVSLSCRYSYNLLAKEFRASLYKGVNSDVEVCVGNGNFTYQPQFRSNAEFNCDGDFDNETVTFRLWNLHVNHTDIYFCKIEFMYPPPYLDNERSNGTIIHIKEKHLCHTQSSPKL
3 | – | – | – | – | – | binds | mCD28 mIgG2a (Fc fusion, mouse, UniProt P31041 20-150, looked up, mouse CD28) NKILVKQSPLLVVDSNEVSLSCRYSYNLLAKEFRASLYKGVNSDVEVCVGNGNFTYQPQFRSNAEFNCDGDFDNETVTFRLWNLHVNHTDIYFCKIEFMYPPPYLDNERSNGTIIHIKEKHLCHTQSSPKL
